± gives the standard deviation of the averaged measurements.
Tested on: Saccharomyces cerevisiae
Test: protein stability index of tFT-peptide fusion (C-terminal peptide) (PSI (0-1 scale)); higher = more stable (slower turnover)
Conditions: genetic background: wild type; temperature: 30 C
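Also: PSI is a weighted mean of sequencing reads over stability bins, variants kept only with over 10 reads, mCherry proximal and sfGFP distal, peptide attached via GGGS linker.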

Sequence	protein stability index
VTGCAVLSGAGE	0.675 ± 0.051
VTGSHARFSVPE	0.658 ± 0.013
VTHDSACSSRLA	0.683 ± 0.019
VTHREFAGSALG	0.698 ± 0.022
VTLSYDTKWLWL	0.665 ± 0.07
VTPLPPPRTFLP	0.67 ± 0.07
VTPPTPPSRASP	0.667 ± 0.02
VTPVPFRTMMST	0.571
VTREEVSAGRGR	0.657 ± 0.058
VTRLTGKLVAEK	0.576 ± 0.027
VTSSLHAVPWSR	0.693 ± 0.0088
VTTDLALCGSVC	0.624 ± 0.016
VTTPHPPAPPPP	0.765 ± 0.02
VTTQELRCRPEG	0.636 ± 0.019
VTVCQTRGADSV	0.579 ± 0.01
VVAGGERMRTGV	0.671 ± 0.022
VVCLGLPIQAGV	0.526 ± 0.017
VVCVGGVELLVL	0.532 ± 0.019
VVCVGSEVGEGG	0.7243 ± 0.0045
VVFEVFLTHMSM	0.624 ± 0.065
VVFFSSPHFVRA	0.609 ± 0.05
VVGAVVLRRGGP	0.67 ± 0.012
VVGFVPVWRAGS	0.593 ± 0.031
VVGSVFGGVRAA	0.708 ± 0.032
VVGVAVSRTFAR	0.618 ± 0.039

Sequence	protein stability index
VVIFPPTFISGG	0.643 ± 0.1
VVIRVKDEPFIM	0.6781 ± 0.0067
VVKFLALIPLSP	0.583 ± 0.01
VVLLGAVGLVER	0.679 ± 0.029
VVLRSTFFGSLL	0.699 ± 0.0089
VVLSCGIPGCVF	0.572 ± 0.028
VVLSRSLTDLVR	0.677 ± 0.077
VVLTGPGYCLTL	0.763 ± 0.047
VVNVVGRVVPKG	0.7396 ± 0.006
VVQLSKWSTIIR	0.64 ± 0.061
VVRHWRRMTGDA	0.629 ± 0.12
VVRLGSNYYGGT	0.756 ± 0.004
VVRWFGGGGVRG	0.719 ± 0.1
VVSGIFQVLATC	0.614 ± 0.084
VVSHRGVGKGEG	0.607 ± 0.047
VVSLGLGGFVVR	0.719 ± 0.033
VVTGVRFGVGSI	0.697 ± 0.039
VVVGGVWIRRVW	0.654 ± 0.052
VVVGPVTKRGGH	0.68 ± 0.046
VVVQSGSSYKEY	0.7 ± 0.11
VVVVCSWPVSLL	0.5744 ± 0.0042
VVVVSGFKGSCL	0.637 ± 0.065
VVWRRVIGGLVM	0.637 ± 0.031
VVWSWCWEYAAV	0.625 ± 0.013
VWCWCGWGVWGL	0.629 ± 0.063

Sequence	protein stability index
VWFLSYLSVIFP	0.58 ± 0.04
VWGGWRRGRAWW	0.72411 ± 0.00051
VWGLGGEFWWGV	0.745 ± 0.014
VWGQGTPFRVVM	0.655 ± 0.091
VWGTVCSMRREG	0.63 ± 0.028
VWLLSNGFLAVD	0.706 ± 0.049
VWRHSGRVASLA	0.624 ± 0.0098
VWTITGFIPVVF	0.517 ± 0.032
VYEGIQEKTTRQ	0.5754 ± 0.0057
VYHQLNDRLSLG	0.70389 ± 0.00025
VYTFGASKSMLG	0.629 ± 0.035
VYVFGCVVGSGW	0.639 ± 0.032
WAAGLRVCRSVL	0.704 ± 0.052
WAASGGAARYAP	0.684 ± 0.037
WADAAYLGCWWD	0.737 ± 0.072
WAFGFLFISSAM	0.5077 ± 0.0014
WAGGRHCKGVVV	0.681 ± 0.13
WARGVAASGRFV	0.6916 ± 0.0025
WASRSGPRVTLI	0.71 ± 0.018
WCGDVLWLMSCG	0.714 ± 0.016
WCGQVFWCVKES	0.699 ± 0.039
WCLDCVGFSLPE	0.687 ± 0.054
WCRVCNRLVVGV	0.5258 ± 0.0015
WDSGRWSCLRGW	0.698 ± 0.044
WDVVECCLWRYR	0.681 ± 0.034

Sequence	protein stability index
WERREGTGMRAG	0.748 ± 0.051
WESGRNNWYMNK	0.798 ± 0.13
WEVLGGFVWASC	0.6828 ± 0.0045
WFLSGGCLFCWR	0.714 ± 0.061
WFPRLGKRSRGS	0.69 ± 0.025
WFQSSLVCDTWL	0.681 ± 0.015
WFSSPVTISTRK	0.692 ± 0.11
WGAGGGVWWGGV	0.704 ± 0.03
WGAKGLESIHVM	0.6 ± 0.019
WGCAGVGGVGGG	0.6853 ± 0.0065
WGCGGGRDGCGV	0.647 ± 0.095
WGCGVRWGVDWA	0.732 ± 0.026
WGGASIGMGFGA	0.743 ± 0.036
WGGCNTALLTIL	0.581 ± 0.018
WGGFLVDFGFQG	0.757 ± 0.046
WGGLGRVWVKLG	0.706 ± 0.038
WGGLGWVWVKLG	0.685 ± 0.072
WGGTRCGGREVV	0.692 ± 0.054
WGGVGLWGGWDG	0.723 ± 0.058
WGGVRRHGVGGS	0.648 ± 0.1
WGLIASGSIVIV	0.548 ± 0.05
WGPGGRLGVGHV	0.676 ± 0.039
WGRARCAVGVSG	0.629 ± 0.0092
WGRCVGLAGAAG	0.677 ± 0.027
WGREGRVPGWAG	0.671 ± 0.11

Sequence	protein stability index
WGRGGSGGSWGA	0.688 ± 0.018
WGRGRGEMVGRT	0.705 ± 0.038
WGRGRWEMVGRT	0.693 ± 0.037
WGRNRGASDPNL	0.7198 ± 0.0046
WGVGCVRGVWGA	0.714 ± 0.088
WGVGWVLEVLLG	0.529 ± 0.0066
WHSGVICQTVLM	0.651 ± 0.014
WICFDFLLPVAL	0.549 ± 0.025
WIDSGCALVEIA	0.701 ± 0.045
WIFPPLPPPLPR	0.7174 ± 0.0037
WILDKECFKECD	0.654 ± 0.046
WIPITSDKCNFK	0.709 ± 0.06
WKCHRTDSRKRW	0.726 ± 0.044
WKSSRSRCIHGE	0.707 ± 0.026
WKVFKGLSADVS	0.669 ± 0.026
WLGGGGTVAHSP	0.726 ± 0.1
WLPPPPPPSPSS	0.767 ± 0.0026
WLTNKYDNIVKD	0.7634 ± 0.0068
WLVADWLLALFW	0.627 ± 0.019
WLVGGGTVAHSP	0.77 ± 0.088
WLVPSGTRTGRV	0.678 ± 0.028
WLWYLSTRHSKL	0.7871 ± 0.0037
WPCVGWTLCSCS	0.541 ± 0.042
WPFHADPPPPVP	0.6969 ± 0.0026
WPGRAVCLGAGW	0.734 ± 0.056

Sequence	protein stability index
WPSHVTLPYGLV	0.6545 ± 0.0057
WQDTASNSNTTI	0.719 ± 0.024
WRCSAITASEYL	0.686 ± 0.032
WRDGSLKIKCML	0.756 ± 0.21
WRLGGGMVCVAS	0.566 ± 0.042
WRNTGSTYYMKV	0.723 ± 0.015
WRNVEITSGSPH	0.672 ± 0.063
WRRCSGGGVGSP	0.655 ± 0.084
WRRGMMGGLAIW	0.698 ± 0.012
WSGNYSNITRYI	0.66 ± 0.019
WSWTNDAFFGVV	0.681 ± 0.068
WTLSGHKHIPED	0.736 ± 0.013
WVAGPWLGRVQE	0.733 ± 0.0083
WVLFRNKSVAAS	0.527 ± 0.012
WVNGFCKKGSGH	0.713 ± 0.015
WVRLITCVRCSR	0.594 ± 0.048
WVTLGMGGECMR	0.818 ± 0.14
WWGGGGGMQGVR	0.674 ± 0.0096
WWGLGGREPGGS	0.711 ± 0.072
WYCRWWGVRGGH	0.672 ± 0.1
WYFSSPPPFFSP	0.766 ± 0.058
